From PMC5967840

How the values were obtained:
Assay in all cases: AUC; sedimentation velocity (60 krpm) and sedimentation equilibrium (six rotor speeds, 30-48 krpm, single ideal species model); 325 uM peptide in PI buffer (10 mM potassium phosphate pH 7.4), 1.625 mM TCEP, 25 mM NaCl, 20 °C
[1] = molecular target: CC-R4-Tri3
[2] = molecular target: CC-Tri3 variant with a negatively charged E4 block at the C terminus
[3] = molecular target: CC-Tri3 variant with a negatively charged E4 block at the N terminus
[4] = molecular target: CC-Tri3 with tetra-lysine (K4) appended to the N terminus
[5] = molecular target: CC-Tri3-K4
[6] = molecular target: CC-Tri3-R4

CC-R4-Tri3 (peptide)
stoichiometry N [1]: 3

CC-Tri3 variant with a negatively charged E4 block at the C terminus (peptide)
stoichiometry N [2]: 3

CC-Tri3 variant with a negatively charged E4 block at the N terminus (peptide)
stoichiometry N [3]: 3

CC-Tri3 with tetra-lysine (K4) appended to the N terminus (peptide)
stoichiometry N [4]: 3

CC-Tri3-K4 (peptide)
stoichiometry N [5]: 3

CC-Tri3-R4 (peptide)
stoichiometry N [6]: 3
